Experiments:
[1] = Heparin binding capture ELISA (biotin-heparin on streptavidin plate); settings: PEGylated and non-PEGylated forms (Table 22)
Protocol: Heparin binding of PEGylated rHuADA2 or variants was assessed by capture ELISA. Binding of rHuADA1 was assessed as a negative control. 100 μL of 0.2 mg/mL biotin-heparin (Sigma-Aldrich, St. Louis, Mo.; Cat No. B9806-10MG) was added to a streptavidin coated 96-well plate (Thermo Fisher Scientific, Rockford, Ill.; Cat. No. 15520), and incubated at room temperature for 1 hour. The plate was washed 6 times with PBS. Then, 150 μL of […] rHuADA2 was added to the heparin coated plate, titrated in 3× serial dilutions, and incubated at room temperature for 2 hours. The plate was then washed 6 times with PBS. A 1000× dilution of goat HRP-anti-FLAG pAb (Abcam, Cambridge, UK; Cat. No. Ab1238) was added to the ELISA plate and incubated at room temperature for 1 hour. The ELISA plate was then washed 6 times with phosphate buffered saline with Tween (PBST) and developed with the 3,3′,5,5′-Tetramethylbenzidine (TMB) substrate solution (Pierce, Thermo Fisher Scientific, Rockford, Ill.) according the manufacturer's instructions and reading the optical density at 450 nm (OD450) on a plate reader.

[2] = Kinetic assessment of adenosine deaminase activity (ammonia assay, Michaelis-Menten); format: biochemical; settings: for kcat: kcat=Vmax/0.0085/60; for kinetics properties compared to WT: pH 7.6 and pH 6.5
How it was run: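 Coupled ammonia assay: rHuADA2 WT or variants (1 μg/mL, 17 nM in 2× mix) with adenosine 20 μM–20 mM, α-ketoglutarate, NADPH and GDH, at pH 7.6 or pH 6.5 (PIPES), room temperature. Michaelis-Menten fit gave Km, Vmax, kcat, kcat/Km.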

[3] = Spectrophotometric adenosine deaminase assay at varying pH (pH optimum); format: biochemical; settings: for pH optimum (highest deaminase activity): pH 5.5 to 8, 5 mM ADO
Protocol: Adenosine deaminase activity of rHuADA2 and variants at varying pH were assessed to determine the pH optimum of each. The adenosine deaminase activity was determined spectrophotometrically by direct measurement of changes in adenosine absorbance. […] During the deamination reaction, the absorbance of ADO decreases while that of INO increases with time. Since the dynamic changes in absorbance make it difficult to monitor activity at a single wavelength, the relative ADO activity was determined as a ratio of the ADO peak to isobestic point (i.e. the wavelength where ADO and INO have the same extinction coefficient). The isobestic point, which is 253 nm, remains unchanged and is concentration independent, so that it is the reference point to correct for volume or intensity discrepancies.
To construct the standard curve for ADO and INO, a series of solution mixtures in 0.001% Tween-20 containing different concentrations of ADO and INO were prepared. The total concentration of ADO and INO mix was 50 μM, in 1×PBS (10 mM phosphate, 137 mM NaCl, 2.7 mM KCl), pH 7.4. The samples were scanned with the wavelengths between 220 nm and 300 nm to determine the isosbestic point, where all spectra cross.
For performing the spectrophotometric adenosine deaminase assay of ADA2 and variants, a 2× solution containing 10 mM ADO in 100 mM potassium phosphate buffer (KPB), 0.1% Tween-20 at different pHs (i.e. 5.5, 6, 6.5, 6.75, 7, 7.25, 7.4, 7.75 and 8) were prepared. A separate 2× solution containing 2 μg/mL WT rHuADA2 or variants were prepared in the same 100 mM potassium phosphate buffer (KPB), 0.1% Tween-20 at the respective pH (i.e. 5.5, 6, 6.5, 6.75, 7, 7.25, 7.4, 7.75 and 8). An equal volume of the ADO solution and the ADA2 solution (wildtype or variants) were mixed to initiate reaction. At each time point (i.e. 1, 3, 5, 7, 9, 11, 13 and 15 min), a small aliquot (4 μl) was removed and diluted 50 times by adding to 196 μl 1×PBS, pH 7.4. The diluted samples were further diluted 2 fold (in duplicates) by adding 85 μl samples to 85 μl 1×PBS in a UV-transparent half area plate. The absorbance at 253 nm and 261 nm were measured of each diluted sample.
Adenosine concentration was determined using the A261/A253 ratio and the standard curve. Adenosine deaminase activity was measured by negative change in ADO concentration per min×100.

| Molecule | Average OD450, heparin binding capture ELISA [1] | Km ([2]; pH 6.5, [E] = 8.5 nM) [mM] | Vmax ([2]; pH 6.5, [E] = 8.5 nM) [µM/min] | kcat ([2]; pH 6.5, [E] = 8.5 nM) [s⁻¹] | Km ([2]; pH 7.6, [E] = 8.5 nM) [mM] | Vmax ([2]; pH 7.6, [E] = 8.5 nM) [µM/min] | kcat ([2]; pH 7.6, [E] = 8.5 nM) [s⁻¹] | kinetics properties compared to WT [2] | Adenosine deaminase activity Δ [ADO]/min × (−100) ([3]; pH 5.5) | Adenosine deaminase activity Δ [ADO]/min × (−100) ([3]; pH 6) | Adenosine deaminase activity Δ [ADO]/min × (−100) ([3]; pH 6.5) | Adenosine deaminase activity Δ [ADO]/min × (−100) ([3]; pH 6.75) | Adenosine deaminase activity Δ [ADO]/min × (−100) ([3]; pH 7) | Adenosine deaminase activity Δ [ADO]/min × (−100) ([3]; pH 7.25) | Adenosine deaminase activity Δ [ADO]/min × (−100) ([3]; pH 7.4) | Adenosine deaminase activity Δ [ADO]/min × (−100) ([3]; pH 7.75) | Adenosine deaminase activity Δ [ADO]/min × (−100) ([3]; pH 8) | Km ([2]; pH 6.5) [mM] | Km ([2]; pH 7.6) [mM] | pH optimum (highest deaminase activity) [3] |
| --- | --- | --- | --- | --- | --- | --- | --- | --- | --- | --- | --- | --- | --- | --- | --- | --- | --- | --- | --- | --- |
| S265N: ADA2 variant SEQ ID NO:54 (protein, human ADA2 S262N, mature numbering) IDETRAHLLLKEKMMRLGGRLVLNTKEELANERLMTLKIAEMKEAMRTLIFPPSMHFFQAKHLIERSQVFNILRMMPKGAALHLHDIGIVTMDWLVRNVTYRPHCHICFTPRGIMQFRFAHPTPRPSEKCSKWILLEDYRKRVQNVTEFDDSLLRNFTLVTQHPEVIYTNQNVVWSKFETIFFTISGLIHYAPVFRDYVFRSMQEFYEDNVLYMEIRARLLPVYELSGEHHDEEWSVKTYQEVAQKFVETHPEFIGIKIIYNDHRSKDVAVIAESIRMAMGLRIKFPTVVAGFDLVGHEDTGHSLHDYKEALMIPAKDGVKLPYFFHAGETDWQGTSIDRNILDALMLNTTRIGHGFALSKHPAVRTYSWKKDIPIEVCPISNQVLKLVSDLRNHPVATLMATGHPMVISSDDPAMFGAKGLSYDFYEVFMGIGGMKADLRTLKQLAMNSIKYSTLLESEKNTFMEIWKKRWDKFIADVATK | – | 1.49 | 45.79 | 89.78 | 3.02 | 80.49 | 157.82 | – | 24.61 | 31.59 | 41.30 | 44.46 | 45.16 | 50.99 | 45.81 | 25.16 | 3.70 | 1.49 | 3.02 | 7.25 |
| K374E: ADA2 variant SEQ ID NO:21 (protein, human ADA2 K371E, mature numbering) IDETRAHLLLKEKMMRLGGRLVLNTKEELANERLMTLKIAEMKEAMRTLIFPPSMHFFQAKHLIERSQVFNILRMMPKGAALHLHDIGIVTMDWLVRNVTYRPHCHICFTPRGIMQFRFAHPTPRPSEKCSKWILLEDYRKRVQNVTEFDDSLLRNFTLVTQHPEVIYTNQNVVWSKFETIFFTISGLIHYAPVFRDYVFRSMQEFYEDNVLYMEIRARLLPVYELSGEHHDEEWSVKTYQEVAQKFVETHPEFIGIKIIYSDHRSKDVAVIAESIRMAMGLRIKFPTVVAGFDLVGHEDTGHSLHDYKEALMIPAKDGVKLPYFFHAGETDWQGTSIDRNILDALMLNTTRIGHGFALSKHPAVRTYSWEKDIPIEVCPISNQVLKLVSDLRNHPVATLMATGHPMVISSDDPAMFGAKGLSYDFYEVFMGIGGMKADLRTLKQLAMNSIKYSTLLESEKNTFMEIWKKRWDKFIADVATK | – | 3.18 | 41.93 | 82.22 | 4.77 | 35.13 | 68.88 | improved kinetics properties compared to WT | 15.76 | 19.15 | 27.09 | 25.72 | 24.63 | 21.88 | 18.32 | 5.98 | 4.25 | – | – | – |

Second part, led by results:

| Average OD450, heparin binding capture ELISA [1] | Molecule | Km ([2]; pH 6.5, [E] = 8.5 nM) [mM] | Vmax ([2]; pH 6.5, [E] = 8.5 nM) [µM/min] | kcat ([2]; pH 6.5, [E] = 8.5 nM) [s⁻¹] | Km ([2]; pH 7.6, [E] = 8.5 nM) [mM] | Vmax ([2]; pH 7.6, [E] = 8.5 nM) [µM/min] | kcat ([2]; pH 7.6, [E] = 8.5 nM) [s⁻¹] | kinetics properties compared to WT [2] | Adenosine deaminase activity Δ [ADO]/min × (−100) ([3]; pH 5.5) | Adenosine deaminase activity Δ [ADO]/min × (−100) ([3]; pH 6) | Adenosine deaminase activity Δ [ADO]/min × (−100) ([3]; pH 6.5) | Adenosine deaminase activity Δ [ADO]/min × (−100) ([3]; pH 6.75) | Adenosine deaminase activity Δ [ADO]/min × (−100) ([3]; pH 7) | Adenosine deaminase activity Δ [ADO]/min × (−100) ([3]; pH 7.25) | Adenosine deaminase activity Δ [ADO]/min × (−100) ([3]; pH 7.4) | Adenosine deaminase activity Δ [ADO]/min × (−100) ([3]; pH 7.75) | Adenosine deaminase activity Δ [ADO]/min × (−100) ([3]; pH 8) | Km ([2]; pH 6.5) [mM] | Km ([2]; pH 7.6) [mM] | pH optimum (highest deaminase activity) [3] |
| --- | --- | --- | --- | --- | --- | --- | --- | --- | --- | --- | --- | --- | --- | --- | --- | --- | --- | --- | --- | --- |
| 0.71 | R23E: ADA2 variant SEQ ID NO:30 (protein, human ADA2 R20E, mature numbering) IDETRAHLLLKEKMMRLGGELVLNTKEELANERLMTLKIAEMKEAMRTLIFPPSMHFFQAKHLIERSQVFNILRMMPKGAALHLHDIGIVTMDWLVRNVTYRPHCHICFTPRGIMQFRFAHPTPRPSEKCSKWILLEDYRKRVQNVTEFDDSLLRNFTLVTQHPEVIYTNQNVVWSKFETIFFTISGLIHYAPVFRDYVFRSMQEFYEDNVLYMEIRARLLPVYELSGEHHDEEWSVKTYQEVAQKFVETHPEFIGIKIIYSDHRSKDVAVIAESIRMAMGLRIKFPTVVAGFDLVGHEDTGHSLHDYKEALMIPAKDGVKLPYFFHAGETDWQGTSIDRNILDALMLNTTRIGHGFALSKHPAVRTYSWKKDIPIEVCPISNQVLKLVSDLRNHPVATLMATGHPMVISSDDPAMFGAKGLSYDFYEVFMGIGGMKADLRTLKQLAMNSIKYSTLLESEKNTFMEIWKKRWDKFIADVATK | 3.29 | 37.16 | 72.86 | 5.06 | 29.08 | 57.02 | improved kinetics properties compared to WT | 22.84 | 25.64 | 29.18 | 29.47 | 28.53 | 21.71 | 19.37 | 7.41 | 5.33 | – | – | – |
| 2.31 | WT ADA2: wild type recombinant human adenosine deaminase 2 with FLAG tag, mature ADA2 SEQ ID NO:5 (protein, listed as Homo sapiens, FLAG tag; ADA2 mature protein) IDETRAHLLLKEKMMRLGGRLVLNTKEELANERLMTLKIAEMKEAMRTLIFPPSMHFFQAKHLIERSQVFNILRMMPKGAALHLHDIGIVTMDWLVRNVTYRPHCHICFTPRGIMQFRFAHPTPRPSEKCSKWILLEDYRKRVQNVTEFDDSLLRNFTLVTQHPEVIYTNQNVVWSKFETIFFTISGLIHYAPVFRDYVFRSMQEFYEDNVLYMEIRARLLPVYELSGEHHDEEWSVKTYQEVAQKFVETHPEFIGIKIIYSDHRSKDVAVIAESIRMAMGLRIKFPTVVAGFDLVGHEDTGHSLHDYKEALMIPAKDGVKLPYFFHAGETDWQGTSIDRNILDALMLNTTRIGHGFALSKHPAVRTYSWKKDIPIEVCPISNQVLKLVSDLRNHPVATLMATGHPMVISSDDPAMFGAKGLSYDFYEVFMGIGGMKADLRTLKQLAMNSIKYSTLLESEKNTFMEIWKKRWDKFIADVATK | 3.66 | 31.81 | 62.37 | 5.25 | 26.09 | 51.16 | – | 21.11 | 22.06 | 33.77 | 29.76 | 28.70 | 24.47 | 21.77 | 6.65 | 3.58 | 3.66 | 5.25 | approximately 6.5 |

Source: patent publication US9969998B2, “Compositions of adenosine deaminase-2 (ADA2), variants thereof and methods of using same” (Halozyme, Inc., priority 2014, dated 2018)
